From patent US20170081409A1 (AGENUS, published 2017)

Molecular target: T1, human PD-1 expressed by activated (SEA-stimulated) primary human CD4+ T cells (human, UniProt Q15116 25-288)
T1 construct: whole, on cells; also called programmed cell death protein 1
Assay: flow cytometry on SEA-stimulated human PBMC, CD4+ gate
Procedure: The anti-PD-1 antibodies AGEN2046w, AGEN2047w, and AGEN2034w were examined for binding to activated peripheral blood mononuclear cells (PBMCs) by flow cytometry. Cryopreserved human PBMCs prepared from unpurified buffy coats (Research Blood Components, Catalog number (Cat#) 002) or cryopreserved cynomolgus PBMCs (Worldwide Primates Inc., customer order) were plated at 10⁵ cells/well in RPMI1640 medium supplemented with Normocin™ (InvivoGen, Cat#ant-nr-1) and 10% heat-inactivated FBS (Gibco, Cat#16140063) in 96-well NUNCLON delta surface plates (NUNC™). The cells were cultured in the presence of 100 ng/ml of Staphylococcus Enterotoxin A (SEA; for human PBMCs) (Toxin Technologies, Cat#at101red) or Staphylococcus Enterotoxin B (SEB; for cynomolgus PBMCs) (Toxin Technology, Cat#bt202red) for 5 days at 37° C., 5% CO₂, and 97% humidity. […] The cells were washed twice with sample buffer and then resuspended in sample buffer and analyzed with a FACS Fortessa cytometer (Becton Dickinson). CD4+ T cells were gated and the mean fluorescence intensity (MFI) was recorded.
The binding of AGEN2034w to activated primary human T cells was measured again in a similar assay. […] Cells were analyzed with a FACS Fortessa cytometer (Becton Dickinson). CD4+ T cells were gated and the mean fluorescence intensity (MFI) of AGEN2034w-positive cells was determined.

T1 sequence (Q15116 25-288): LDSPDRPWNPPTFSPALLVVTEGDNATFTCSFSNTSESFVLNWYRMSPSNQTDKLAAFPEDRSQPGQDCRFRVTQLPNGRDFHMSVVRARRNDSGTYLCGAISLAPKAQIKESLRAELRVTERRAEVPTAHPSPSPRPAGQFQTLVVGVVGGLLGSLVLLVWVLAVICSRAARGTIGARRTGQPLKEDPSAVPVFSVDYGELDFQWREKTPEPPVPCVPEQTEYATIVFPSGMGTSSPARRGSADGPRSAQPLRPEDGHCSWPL

binding result: binds
B1: AGEN2046w (antibody, human IgG1, kappa, V domains shown)
VH: QVQLVESGGGVVQPGRSLRLSCAASGFTFSSYGMHWVRQAPGKGLEWVAVIWYDGSNKYYADSVKGRFTISRDNSKNTLYLQMNSLRAEDTAVYYCASNVDYWGQGTLVTVSS
VL: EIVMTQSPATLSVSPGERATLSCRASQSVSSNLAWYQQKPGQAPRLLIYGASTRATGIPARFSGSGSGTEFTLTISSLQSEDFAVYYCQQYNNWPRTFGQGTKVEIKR
